Results as given in the supplement of paper PMC9170038.

Tested on: MS2 coat protein
Assay: apparent KD of MS2 coat protein; designed switch direction (-1 OFF switch, 1 ON switch): -1; higher = weaker reporter binding
Method in brief: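 Each step of the titration lasted 0.8–1.5 h at the lowest concentration and 10–20 min at the highest. The protein, SNAP-549-labelled MS2 coat protein, went from 0.7 or 1.5 nM doubling to 3 µM over RNA switches transcribed on Illumina chips by stalled E. coli RNA polymerase. Normalised cluster fluorescence was curve-fitted, and the per-design median over clusters is given as apparent KD.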

[1] = input ligand: microRNA oligo, concentration not stated
[2] = Eterna round: R95, input ligand: microRNA oligo, concentration not stated
[3] = Eterna round: R95, input ligand: FMN 200 uM
[4] = Eterna round: R95, input ligand: none

Sequence	apparent KD of MS2 coat protein (input ligand: FMN 200 uM)	apparent KD of MS2 coat protein (input ligand: none)	apparent KD of MS2 coat protein [1]	apparent KD of MS2 coat protein [2]	apparent KD of MS2 coat protein [3]	apparent KD of MS2 coat protein [4]
AGUGUGUCAGGAUAUUCUAUUAAUUACAUGAGGAUCACCCAUGUGAAUGGACAAGGGUGUGAAGAAGGGACGUGCG [Omei Ex5 A17e] (Eterna round: R97, puzzle: Exclusion 5)	211 nM	381 nM				
UCAUGGAAGCAGGAUAUGCUUGUUUAAUUGUUUGCAGAAGGGCUAACAUGAGGAUCACCCAUGUAAGAGGUCUA [JR_E6_Sub063] (Eterna round: R96, puzzle: Exclusion 6)	59.6 nM	72.5 nM	53.3 nM			
UAGCCUUUAGUUAGGAUAUGAUAUGGGAACCAUUAUCAGAAGGAACAUGAGGAUCACCCAUGUACCGACAGGGA [Eternabot (L2) Solution 9] (Eterna round: R97, puzzle: Brourd's mod of Exclusion 4)	19.9 nM	12.3 nM				
CUGAGCUGAGGAUAUACAUGAGGAUCACCCAUGUGUUCCAGCUUGCGUACAGGCAGAUGUAGAAGGCAGUUCGG [JL-ex3-3.35 Brourd mod] (puzzle: Exclusion 3)				38.9 nM		
AUUGGUUUGCGAGGAUAUGCUAAUAGUAAGUAUGCAGAAGGCGCGUUACAUAGAACCUCUAGUUACAUGAGGAUCACCCAUGUU [JR_ExcNG1_Sub038] (Eterna round: R96, puzzle: Exclusion NG 1)			40.9 nM			
CGUCAACAUGAGGAUCACCCAUGUUAGGAUAUGGCGGUCCAUGGUUGGGACUAGACCGCCAGAAGGAGCAUGCG [Eternabot (L1) Solution 54] (Eterna round: R97, puzzle: Exclusion 1)	71.9 nM	86.8 nM				
CGCUGGUGAGGAUAUGGGUGUUUUUACAUGAGGAUCACCCAUGUGGAGUAGCAUGUGGGUCCAGAAGGCGCGGGUG [-24.2, -22.5 kcal, 20% A] (Eterna round: R97, puzzle: Exclusion 5)	682 nM	435 nM				
AGCUAGUCAGGAUAUACGUAAAUGUCGAAAGACGUAUUGGGACAUGAGGAUCACCCAUGUAGAAGGGACUAGCA [Mod of Janderson's WEB Mod v.1] (Eterna round: R96, puzzle: Exclusion 2)	168 nM	24.8 nM	19.7 nM			
AAUCUUCUAGGAUAUAUAUGGUAGCGGGAGAACCCAGUCACACAUGAGGAUCACCCAUGUAGAAGGAGAAUAGG [Eternabot (L1) Solution 87] (Eterna round: R97, puzzle: Exclusion 2)	107 nM	99.7 nM				
GCUGCAAGAGGAUAUACAUGAGGAUCACCCAUGUGAAAUUAUAGUGAGGAAAUGAAAAGUAGAAGGCUUGUAGA [Mod of Mat 15 - Jieux - Exclusion 3] (Eterna round: R97, puzzle: Exclusion 3)	86.6 nM	38.1 nM				
UGCCGAAGAGGAUAUACAUUGAAUUUGAUUCAUGUAAAACUACAUGAGGAUCACCCAUGUAGAAGGCUUUGGCU [Mat - Exclusion 2 - JL Mod - D61] (Eterna round: R97, puzzle: Exclusion 2)	34.2 nM	15.3 nM				
UCGCUCCGUGUAGGAUAUCGUUGUACCCUGCGGCGAGAAGGACAUGAGGAUCACCCAUGUAUGUUAUUAUCACGCGUGGCGCAA [Design 69] (Eterna round: R96, puzzle: Exclusion NG 1)	15.9 nM	18.3 nM	13.4 nM			
UCGUUCCGUGUAGGAUAUUGGCCUUCCUCGGGCCGAGAAGGACAUGAGGAUCACCCAUGUAUGCUAUUAUCGCGCGUGGCGCAC [Design 96] (Eterna round: R96, puzzle: Exclusion NG 1)	141 nM	33 nM	24.5 nM			
CAGCUGAAUGUGAGGAUAUGUCUAGCUGCGGCUAGACAGAAGGCACAUGAGGAUCACCCAUGUCUCAACAGCUG [BmEx4/2-D3] (Eterna round: R97, puzzle: Brourd's mod of Exclusion 4)	414 nM	35.5 nM				
UACAUGAGGAUCACCCAUGUUUUGUCGUGUAUGGUAUUUAUCUAGGAUAUCAUUUUAUUAAGUUAUGAGAAGGAGAAUAUUAAU [JMF's solution 90] (Eterna round: R96, puzzle: Exclusion NG 3)	34.8 nM	32.3 nM	24.9 nM			
CCGCUGUGAGGAUAUUAGUAGUAGUCAGAAAAGACUAUUACUGAGAAGGCACAUGAGGAUCACCCAUGUUGCGG [Mat - Exclusion 4 - Eli Mod - D48] (Eterna round: R97, puzzle: Exclusion 4)	33.9 nM	38.2 nM				
AGCCUGCAAGUAAGGAUAUGAAGUUAAAAGAACGGUCAGAAGGUACUUGAGGAUCACCCAAGUACGGGAGCGUG [Teuscema] (Eterna round: R97, puzzle: Brourd's mod of Exclusion 4)	41 nM	16.3 nM				
UUUAAUUUUUUUUUUUUACAAGCUUUUUGCUCGUCUUAUACAUGAGGAUCACCCAUGUAAAUGGAAGAUAAAUUAUC [JMF 7] (puzzle: Sensor v3, turn-off variant 2)				18.1 nM	16.7 nM	17.3 nM
AUAAUUUAAGUGAGGAUAUACCUAUGGAAACAUAGGUAGAAGGCACAUGAGGAUCACCCAUGUUUUUACACAAA [Fiskers BMX 4 - 2] (puzzle: Brourd's mod of Exclusion 4)				18.1 nM		
GCAUUGAGUGUGAGGAUAUGCUGGUCGUAAGAUCAGCAGAAGGCACAUGAGGAUCACCCAUGUGAAAACAAUGC [Mat - Exclusion 4 - JL Mod - D67] (puzzle: Brourd's mod of Exclusion 4)				23 nM	125 nM	23.4 nM
GUAAACGAAGAGGAUAUUUGAUAUCAUAGCUUCAAAGAAGGCUUCACAUGAGGAUCACCCAUGUGAUCUUCAAG [Mat - Exclusion 6 - JL Mod - D21] (Eterna round: R97, puzzle: Exclusion 6)	199 nM	34.8 nM				
AUUGAAUGAAACCUCUAAUACAUGAGGAUCACCCAUGUUAUCGAGGAUAUGCAGAAUAGAUUAGAGCAGAAGGCGAAGUAAUAU [JR_ExcNG3_Sub024] (Eterna round: R96, puzzle: Exclusion NG 3)	17.7 nM	12.8 nM	9.67 nM			
AGUAACCGUCACGAAAGUGAUGGUUACACAAGUAAUGAAACAUGAGGAUCACCCAUGUCCUCAUUUGCUCGUCUUAU [Sensor 3 - 39] (puzzle: Sensor v3, turn-off variant 2)				362 nM	354 nM	350 nM
UAUUUACAUGAGGAUCACCCAUGUCAGGAUAUGCGUCUAUCGUCGAAAGACGAUAGUCGCAGAAGGGACAAUAU [LRO-Excl01-22 mod derived from EliFisker 4.24] (Eterna round: R97, puzzle: Exclusion 1)	100 nM	48.9 nM				
AGUACUAUCACGAAAGUGAUAGUACAAAAUAGCAAGUGAACAUGAGGAUCACCCAUGUCCUCAUUUGCUCGUCUUAU [Sensor 3 - 19] (puzzle: Sensor v3, turn-off variant 2)				426 nM	15.1 nM	14.2 nM
